Results reported in article PMC8187647, “Low chorionic villous succinate accumulation associates with recurrent spontaneous abortion risk” (Nature Communications, 2021).

How the values were obtained:
SDHC = target: T1, SDHC (Homo sapiens, UniProt Q99643); test: DARTS (Pronase proteolysis, western blot); assay type: binding; conditions: 1 mM aspirin, 1 h; Pronase 1:2000, room temperature, 30 min
T1 construct: recombinant Flag-tagged SDHC, transient expression in HEK293T, anti-Flag M2 purified
T1 sequence (Q99643 30-169): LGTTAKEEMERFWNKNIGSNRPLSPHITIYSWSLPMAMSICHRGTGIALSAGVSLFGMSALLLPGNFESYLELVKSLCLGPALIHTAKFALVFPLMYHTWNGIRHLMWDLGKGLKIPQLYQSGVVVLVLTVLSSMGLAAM

SDHA = target: T2, SDHA (Homo sapiens, UniProt P31040); test: DARTS (Pronase proteolysis, western blot); assay type: binding; conditions: 1 mM aspirin, 1 h; Pronase 1:2000, room temperature, 30 min
T2 construct: recombinant Flag-tagged SDHA, transient expression in HEK293T, anti-Flag M2 purified

MBD1 = target: T3, MBD1 (UniProt Q9UIS9 1-605); test: EMSA; EMSA Kit (Invitrogen), buffer, salt and pH not stated; 15 °C, 30 min; 6% native polyacrylamide gel; conditions: protein: recombinant; tags: His6 (pET22b)
T3 sequence: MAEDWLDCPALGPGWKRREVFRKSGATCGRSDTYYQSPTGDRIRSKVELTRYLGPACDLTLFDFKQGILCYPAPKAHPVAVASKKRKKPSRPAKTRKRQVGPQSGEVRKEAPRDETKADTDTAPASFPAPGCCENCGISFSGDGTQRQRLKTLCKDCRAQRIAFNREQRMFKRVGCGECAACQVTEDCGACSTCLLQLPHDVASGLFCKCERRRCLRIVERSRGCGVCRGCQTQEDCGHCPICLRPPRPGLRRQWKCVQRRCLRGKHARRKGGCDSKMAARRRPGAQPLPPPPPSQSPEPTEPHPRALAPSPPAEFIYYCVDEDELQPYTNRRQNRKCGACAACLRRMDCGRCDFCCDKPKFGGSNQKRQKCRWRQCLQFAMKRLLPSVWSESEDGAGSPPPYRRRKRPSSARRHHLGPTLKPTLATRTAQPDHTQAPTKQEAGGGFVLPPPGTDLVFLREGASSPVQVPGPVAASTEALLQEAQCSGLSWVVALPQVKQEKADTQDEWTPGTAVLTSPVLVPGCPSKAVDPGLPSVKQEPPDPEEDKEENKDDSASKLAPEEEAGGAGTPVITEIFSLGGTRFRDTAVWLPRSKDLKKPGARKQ

c-Fos = c-Fos (UniProt P01100 1-380); test: as above; conditions: protein: recombinant; tags: His6 (pET22b); chain copies: 2
Chain of c-Fos (P01100 whole entry): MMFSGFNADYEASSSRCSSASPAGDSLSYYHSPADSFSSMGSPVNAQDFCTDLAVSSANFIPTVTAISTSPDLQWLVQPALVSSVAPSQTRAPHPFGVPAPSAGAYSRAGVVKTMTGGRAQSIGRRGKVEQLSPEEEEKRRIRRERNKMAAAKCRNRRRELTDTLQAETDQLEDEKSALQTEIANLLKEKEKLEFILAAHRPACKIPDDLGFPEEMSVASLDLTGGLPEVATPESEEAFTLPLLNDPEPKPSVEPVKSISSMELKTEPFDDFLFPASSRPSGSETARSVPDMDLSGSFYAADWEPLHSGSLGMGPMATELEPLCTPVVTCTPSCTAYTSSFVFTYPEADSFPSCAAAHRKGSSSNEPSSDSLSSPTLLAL

T2 sequence (P31040 43-664): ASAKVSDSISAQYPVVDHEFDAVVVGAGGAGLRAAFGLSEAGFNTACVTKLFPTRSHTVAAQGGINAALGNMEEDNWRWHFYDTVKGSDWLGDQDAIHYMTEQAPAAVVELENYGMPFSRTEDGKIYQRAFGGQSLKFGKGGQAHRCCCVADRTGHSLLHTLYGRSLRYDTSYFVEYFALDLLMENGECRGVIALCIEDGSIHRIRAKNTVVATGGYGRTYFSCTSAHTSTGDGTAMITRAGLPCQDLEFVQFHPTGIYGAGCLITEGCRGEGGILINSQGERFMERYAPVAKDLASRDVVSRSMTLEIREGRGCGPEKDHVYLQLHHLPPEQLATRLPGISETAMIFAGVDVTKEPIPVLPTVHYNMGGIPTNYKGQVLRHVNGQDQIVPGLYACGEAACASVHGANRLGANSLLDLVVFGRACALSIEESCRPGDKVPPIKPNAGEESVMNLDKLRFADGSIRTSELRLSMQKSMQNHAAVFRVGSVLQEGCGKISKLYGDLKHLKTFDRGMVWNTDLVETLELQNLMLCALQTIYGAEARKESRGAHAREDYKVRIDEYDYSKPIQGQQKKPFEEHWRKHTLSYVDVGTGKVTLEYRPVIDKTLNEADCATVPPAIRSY

**Q.** With `CC(=O)Oc1ccccc1C(=O)O` [aspirin] as the molecule, how does the “DARTS (Pronase proteolysis, western blot)” value (SDHC) read?
**A.** aspirin can specifically bind to SDHA and SDHC, but not SDHB and SDHD

**Q.** And the “DARTS (Pronase proteolysis, western blot)” value (SDHA)?
**A.** aspirin can specifically bind to SDHA and SDHC, but not SDHB and SDHD

B1: SDHB promoter -1172/-1165 CpG, methylated (dsDNA)
DNA 1: GGCAAGCTGCACGGTATGCGACAGAAAGGG
DNA 2: CCCTTTCTGTCGCATACCGTGCAGCTTGCC
modifications: 5mC at C12 and C19 of strand 1; methylation of the complement not stated
**Q.** Does B1 bind (MBD1)?
**A.** binds

B2: SDHB promoter -1135 CpG, methylated (dsDNA)
DNA 1: ACTCAAGCCAGTAAGCGTCAGAGATGAATA
DNA 2: TATTCATCTCTGACGCTTACTGGCTTGAGT
modifications: 5mC at C16 of strand 1; methylation of the complement not stated
**Q.** Does B2 bind (MBD1)?
**A.** binds

B3: SDHB promoter c-Fos binding region (dsDNA)
DNA 1: ACAGAAAGGGCTGACTCAAGCCAGTAAGCG
DNA 2: CGCTTACTGGCTTGAGTCAGCCCTTTCTGT
**Q.** Does B3 bind (c-Fos)?
**A.** binds
